The results in this text go back to publication PMC9888389.

This test deals with T1, Atg7, endogenous in mouse heart, Q9D906.
T1 chain: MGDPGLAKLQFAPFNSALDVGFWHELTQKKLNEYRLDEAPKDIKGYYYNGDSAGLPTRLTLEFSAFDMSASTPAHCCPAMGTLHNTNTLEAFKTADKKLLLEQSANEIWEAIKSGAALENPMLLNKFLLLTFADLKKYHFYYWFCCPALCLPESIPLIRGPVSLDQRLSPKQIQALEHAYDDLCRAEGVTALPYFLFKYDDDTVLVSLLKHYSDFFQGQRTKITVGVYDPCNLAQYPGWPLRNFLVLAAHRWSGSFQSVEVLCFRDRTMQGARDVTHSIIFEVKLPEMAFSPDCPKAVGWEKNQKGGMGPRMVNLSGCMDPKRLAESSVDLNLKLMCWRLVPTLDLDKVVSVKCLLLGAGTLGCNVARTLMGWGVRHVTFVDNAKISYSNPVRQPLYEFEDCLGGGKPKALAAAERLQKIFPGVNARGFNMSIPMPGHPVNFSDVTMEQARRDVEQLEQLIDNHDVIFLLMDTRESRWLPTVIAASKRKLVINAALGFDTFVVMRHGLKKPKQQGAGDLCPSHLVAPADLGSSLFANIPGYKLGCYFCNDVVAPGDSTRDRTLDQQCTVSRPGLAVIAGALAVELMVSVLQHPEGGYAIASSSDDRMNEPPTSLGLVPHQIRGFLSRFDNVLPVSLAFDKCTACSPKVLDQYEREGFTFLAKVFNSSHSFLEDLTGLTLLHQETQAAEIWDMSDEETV
As to the kind of experiment: coimmunoprecipitation with anti-FLAG-agarose beads, immunoblot for Atg7, quantified. The following applies: chain shown with the change, Tg-Flag-Trx1 C35S mouse heart, n = 4, read off a plot. (In general: Immunoblotting shows a protein as a band on a membrane.)

B1: Trx1 (wild type) C35S (protein)
chain: MVKQIESKTAFQEALDAAGDKLVVVDFSATWCGPSKMIKPFFHSLSEKYSNVIFLEVDVDDCQDVASECEVKCMPTFQFFKKGQKVGEFSGANKEKLEATINELV
B1 returned a response (Arbitrary unit) (ischemia for 20 minutes) of 0.8 and a response (Arbitrary unit) (sham operation) of 0.55.
